The values below come from patent US20220185844A1, “PEPTIDE-DERIVED THERAPEUTICS TARGETING SET8 FOR THE TREATMENT OF CANCER” (NUVOBIO CORPORATION, priority 2019, published 2022).

The subject of data set [1] is HCT 116 cells. In words: Cell viability assay (Resazurin reduction). It is filed as cell-based. The procedure:
Cell viability was measured using the Resazurin reduction assay which indirectly quantifies living cells through the metabolically active reduction of resazurin to fluorescent resorufin. This assay allows to maintain cells viability and, therefore, to monitor cell growth with time. Exponentially growing HCT 116 cells were seeded into 96-well plates at the density of 2.0×10^4 cells/mL and incubated overnight. The media was replaced with fresh media prior to inhibitor treatment. Cells were treated with 10 μM of inhibitor peptide for 24 hr. All the inhibitors were diluted in the cell culture media (DMEM−/−) from 5 mM stock. All the treated cells were compared to the control (no treatment with equivalent quantity of DMSO) which were considered as 100% viable. One set of wells also prepared with medium only for background subtracting and instrument gain adjustment. The experiments were carried out in triplicate and expressed as mean+−SD. A 10% resazurin solution (0.15 mg/ml stock dissolved in PBS, filter sterilized and stored protected from light at 4° C.) was then added to each well and incubated for 2 hr. The fluorescence was recorded using a multiwell plate reader (Perkin Elmer) at Ex. 560 nm and Em. 610 nm.
Briefly cells were treated with different concentrations of inhibitor for 24 hr ranging from […]. The working dilutions of all the inhibitors were prepared in DMEM−/− media. […]
For orientation: The colour change of resazurin is a common sign of viable cells or microbes.

In data set [2] the test system is H4K20 mono-methylation in HCT 116 cells. In words: Histone H4K20 mono-methylation western blot in treated cells. It is filed as cell-based. The settings on record: HCT 116, 24 hr post dosing, 0-10 nM. The protocol:
The topmost inhibitor, KBL9-TAT, from all the above experiments were tested for histone methylation status in HCT 116 cells. 3×10^6 cells were plated in 10 cm dish and incubated overnight. Cells were then treated with the inhibitors at various concentrations (0, 0.5, 1, 2, 5, 10 nM). Cells (5×10^6 cells/mL), 24 hr of post dosing, were collected in 15 mL falcon tube and centrifuged at 300×g for 10 min. The supernatant was discarded and the cells are washed with iced cold PBS. The cell pellet is flash-frozen in liquid nitrogen and stored at −80° C. Histone isolation is done using standard protocol. To summarize, cells were re-suspended in 1 mL hypotonic lysis buffer (10 mM Tris-HCl pH 8, 1 mM KCl, 1.5 mM MgCl2 and 1 mM DTT) containing protease inhibitor. The cells were transferred to 1.5 mL tube and incubated for 30 min on rotor at 4° C. to promote hypotonic swelling and lysis. The intact nuclei are collected by centrifugation at 10,000×g for 10 min in a cooled tabletop centrifuge. […]
For western blot, of total of […] of histones were separated on 15% SDS-PAGE and transferred overnight at 15V on PVDF membrane. […] Histone proteins were detected by Supersignal™ West Pico PLUS Chemiluminescent substrate (ThermoFisher Scientific) using the Chemidoc XRS+imaging system (BioRad).
In general terms: A western blot detects proteins with antibodies after separation by electrophoresis.

Data set [3] has as its system HCT 116 cells. In words: Chemosensitivity to doxorubicin (Resazurin reduction). It is filed as cell-based. Particulars: HCT 116 pre-treated with 2 uM for 24 hrs, dox 16 hrs, normalized to TAT-alone. The procedure: Inhibitor-induced sensitivity of HCT 116 cells to a chemotherapeutic agent, namely doxorubicin (dox), was measured using the Resazurin reduction assay. This assay allows to maintain cells viability and, therefore, to monitor cell growth with time. Exponentially growing HCT 116 cells were seeded into 96-well plates at the density of 2.0×10^4 cells/mL and incubated overnight. The media was replaced with fresh media prior to inhibitor treatment. Cells were pre-treated with 2 μM of inhibitor peptide for 24 hr. Peptide was diluted in the cell culture media (DMEM−/−) from 5 mM stock. All the treated cells were compared to the control (TAT peptide alone with equivalent quantity of DMSO) which were considered as 100% viable. One set of wells also prepared with medium only for background subtracting and instrument gain adjustment. Following 24 hr peptide treatment, dilutions of dox were added to cells (0, 0.001, 0.002, 0.01, 0.02, 0.1, 0.2, 1, 2 uM) and incubated for 16 hrs. The experiments were carried out in quadruplicate and expressed as mean+−SD. A 10% resazurin solution (0.15 mg/ml stock dissolved in PBS, filter sterilized and stored protected from light at 4° C.) was then added to each well and incubated for 2 hr. The fluorescence was recorded using a multiwell plate reader (Perkin Elmer) at Ex. 560 nm and Em. 610 nm.

Data set [4] relates to HCT 116 cells. In words: Flow cytometry of BrdU incorporation (DNA replication). The settings on record: HCT 116, 24 hr, 2 and 5 μM. Format: cell-based.
Data set [5] addresses T1, Set8 (Homo sapiens, UniProt Q9NQR1).
T1 construct: made in house; host or cells: Escherichia coli BL21 (DE3) RP
T1 sequence (Q9NQR1 191-352 isoform Q9NQR1-2): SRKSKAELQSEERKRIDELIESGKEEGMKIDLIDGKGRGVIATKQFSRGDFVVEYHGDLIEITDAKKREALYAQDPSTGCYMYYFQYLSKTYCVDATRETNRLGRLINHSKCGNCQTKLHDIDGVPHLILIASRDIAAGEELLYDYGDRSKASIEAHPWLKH
In words: In vitro lysine methyltransferase (KMT) activity inhibition assay (Methyltransferase-Glo). It is filed as biochemical.

Data set [6] concerns the target T2, Recombinant Set8-His6x, pHIS2 Set8(191-352) (Homo sapiens (Human), UniProt Q9NQR1 191-352).
T2 construct: Purified from E. coli BL21 (DE3) RP; also called SET domain of Set8; SetD8; not shown: His6x tag from the pHIS2 vector
T2 sequence: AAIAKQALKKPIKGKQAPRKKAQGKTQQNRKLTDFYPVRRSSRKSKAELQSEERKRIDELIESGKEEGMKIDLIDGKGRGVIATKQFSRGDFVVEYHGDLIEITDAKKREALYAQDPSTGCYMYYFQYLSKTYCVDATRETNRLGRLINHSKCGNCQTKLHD
In words: fluorescent polarization, fluorescein-labeled peptide with serially diluted recombinant Set8.

Data set [7] has as its target T2, Recombinant Set8-His6x, pHIS2 …. In words: DSF thermal shift, 125 µM peptide with 20 µM Set8, SYPRO Orange; DMSO control 71.5 ± 1.1.
Experimental: Thermal unfolding of target protein was monitored with inhibitor peptide using DSF. Optimal conditions were achieved using buffer containing 150 mM KH₂PO₄ (pH 7.5), 150 mM NaCl, 10 mM MgCl₂. To assess inhibitor-bound target protein (Set8), 20 μL/well (triplicate) reactions are set up into a Low 96-well Clear Multiplate PCR Plate (Bio-Rad). […] Sypro Orange™ at 5× (diluted in the above binding buffer from a stock concentration of 5000×) then added into the enzyme-peptide mixtures. The plate was covered with Microseal ‘B’ Film (Bio-Rad) and was equilibrated at 25° C. for 5 min. Experiments were conducted on a BioRad C1000 Thermal Cycler with CFX96 Real Time system. Heating was conducted using gradients from 25 to 95° C. (increasing 1° C. per minute).
Data set [8] has the same target. In words: cell-based or functional assay.

“And” between values parts separate entries of the source, which are not always exact repeats. Identical values can stand only once. Where a SMILES comes first, the peptide text is derived from it. Where no end group is shown, it is not given here. [ ]: non-standard residue; d: D form. Nle = CCCC[C@H](N)C(=O)O; Ahx = NCCCCCC(=O)O

In the case of `C[C@@H](O)[C@H](N)C(=O)N[C@@H](Cc1c[nH]cn1)C(=O)N[C@@H](Cc1c[nH]cn1)C(=O)N[C@@H](Cc1c[nH]cn1)C(=O)N[C@@H](CCCCN)C(=O)N[C@@H](Cc1c[nH]cn1)C(=O)N1CCC[C@H]1C(=O)NCC(=O)NCC(=O)NCCCCCC(=O)NCC(=O)N[C@@H](CCCNC(=N)N)C(=O)N[C@@H](CCCCN)C(=O)N[C@@H](CCCCN)C(=O)N[C@@H](CCCNC(=N)N)C(=O)N[C@@H](CCCNC(=N)N)C(=O)N[C@@H](CCC(N)=O)C(=O)N[C@@H](CCCNC(=N)N)C(=O)N[C@@H](CCCNC(=N)N)C(=O)N[C@@H](CCCNC(=N)N)C(=O)N1CCC[C@H]1C(=O)N1CCC[C@H]1C(=O)N[C@@H](CCC(N)=O)C(=O)O` [KBL9-TAT, THHHKHPGG{6-aminohexanoic acid}GRKKRRQRRRPPQ] (H-THHHKHPGG[Ahx]GRKKRRQRRRPPQ-OH; N-terminus and C-terminus assumed), the IC50 – broadly, the concentration needed to halve the response being measured – in data set [1] (24 hr dose response 1 nM to 20 nM, tested in HCT 116 and HEK 293 cells, read-out: IC50 for loss of cell viability) was approximately 20 nM. Further, in data set [1] (HCT 116, 10 μM peptide, 24 hr, DMSO control = 100% viable), the “loss of cell viability” value is listed as “up to 80%”. Besides, in data set [2], the “concentration after which H4K20 histone lysine methylation decreased” value was “at least 2 nM”. Further, the “increase of sensitivity to doxorubicin treatment” value in data set [3] was determined as 360%. Further, the BrdU incorporation entry in data set [4] is “decreased BrdU incorporation in a dose-responsive manner”.
As to THHHKHPGG [KBL9], in data set [5] (50 nM Set8, 10 μM H4K20 peptide, 10 μM SAM), the “inhibition of Set8 methyltransferase activity (H4K20 methylation) in dose-response” value is “complete inhibition”. The “in vitro specificity among panel of related methyltransferases” value in data set [5] (panel of recombinant Set6, Set7, Set8 enzymes) is “in vitro specificity towards the inhibition of Set8 activity”.
As to THHHKHPGG (also: fluorescein label, position not given here, also called EP18) [fluorescein-labeled KBL9], the Kd (commonly the equilibrium constant for the complex coming apart) in data set [6] is 33.5 nM and 33.3 nM.
Take THHHKHPGR (also called EP 21) [KBL4]: in data set [7], the “Tm (° C.)” value came to 85 ° C.
As for THHHKHPEQ (also called EP 7) [KBL13], the “Tm (° C.)” value in data set [7] amounted to 77.6 ° C.
Same read-out and setting: in the case of SHHHKHPHG (also called EP 24) [KBL10] it was 82.8 ° C; in that of THHHKHPHQ (also called EP 8) [KBL15], 75.5 ° C.
On to THHHKHPHK (also called EP 6) [KBL2], for which the “Tm (° C.)” value in data set [7] is 85.8 ° C.
With THHHKHPGA (also called EP 22) [KBL6], in data set [7], the “Tm (° C.)” value was 84.8 ° C.
Same read-out and setting: in the case of THHHKHPGQ (also called EP 19) [KBL8] it was 84.5 ° C.
For THHHKHPGG (also called EP 18; EP18) [KBL9], the “Tm (° C.)” value in data set [7] is 83.5 ° C.
As for THHHKHPGG[Ahx]GRKKRRQRRRPPQ [KBL9-TAT], the “IC50, loss of cell viability (resazurin, 24 hr; HCT 116 and HEK 293 cells)” value in data set [8] is approximately 20 nM.
THHH[Nle]HPGG (also called EP 43) [KBL3]: the “Tm (° C.)” value in data set [7] came out at 85.6 ° C.
As to THHH[Nle]HPGA (also called EP 47) [KBL5], the “Tm (° C.)” value in data set [7] came to 85 ° C.
Same read-out and setting: in the case of THHH[Nle]HPGE (also called EP 48) [KBL11] it was 78.5 ° C; in that of THHH[Nle]HPHQ (also called EP 33) [KBL1], 86.5 ° C.
On to SHHH[Nle]HPGT (also called EP 45) [KBL7], for which the “Tm (° C.)” value in data set [7] came out at 84.8 ° C.
Same read-out and setting: in the case of THHH[Nle]HPEQ (also called EP 32) [KBL14] it was 81.5 ° C; in that of SHHH[Nle]HPHG (also called EP 49) [KBL12], 78.3 ° C.
